Reference: patent US20110059051, “Molecular Control of Brown Fat Differentiation and Engergy Expenditure” (Dana-Farber Cancer Institute, Inc., published 2011)

Biological target: PRDM16 R998Q (Mus musculus, UniProt A2A935 SEQ:1-1275, R998Q)
Assay: EMSA; R998Q completely loses DNA binding; same buffer as wild type
Conditions: label: 32P end label

PRDM16 R998Q, sequence (A2A935 other isoform, or with tags, fused parts or gaps R998Q | R998Q R998Q): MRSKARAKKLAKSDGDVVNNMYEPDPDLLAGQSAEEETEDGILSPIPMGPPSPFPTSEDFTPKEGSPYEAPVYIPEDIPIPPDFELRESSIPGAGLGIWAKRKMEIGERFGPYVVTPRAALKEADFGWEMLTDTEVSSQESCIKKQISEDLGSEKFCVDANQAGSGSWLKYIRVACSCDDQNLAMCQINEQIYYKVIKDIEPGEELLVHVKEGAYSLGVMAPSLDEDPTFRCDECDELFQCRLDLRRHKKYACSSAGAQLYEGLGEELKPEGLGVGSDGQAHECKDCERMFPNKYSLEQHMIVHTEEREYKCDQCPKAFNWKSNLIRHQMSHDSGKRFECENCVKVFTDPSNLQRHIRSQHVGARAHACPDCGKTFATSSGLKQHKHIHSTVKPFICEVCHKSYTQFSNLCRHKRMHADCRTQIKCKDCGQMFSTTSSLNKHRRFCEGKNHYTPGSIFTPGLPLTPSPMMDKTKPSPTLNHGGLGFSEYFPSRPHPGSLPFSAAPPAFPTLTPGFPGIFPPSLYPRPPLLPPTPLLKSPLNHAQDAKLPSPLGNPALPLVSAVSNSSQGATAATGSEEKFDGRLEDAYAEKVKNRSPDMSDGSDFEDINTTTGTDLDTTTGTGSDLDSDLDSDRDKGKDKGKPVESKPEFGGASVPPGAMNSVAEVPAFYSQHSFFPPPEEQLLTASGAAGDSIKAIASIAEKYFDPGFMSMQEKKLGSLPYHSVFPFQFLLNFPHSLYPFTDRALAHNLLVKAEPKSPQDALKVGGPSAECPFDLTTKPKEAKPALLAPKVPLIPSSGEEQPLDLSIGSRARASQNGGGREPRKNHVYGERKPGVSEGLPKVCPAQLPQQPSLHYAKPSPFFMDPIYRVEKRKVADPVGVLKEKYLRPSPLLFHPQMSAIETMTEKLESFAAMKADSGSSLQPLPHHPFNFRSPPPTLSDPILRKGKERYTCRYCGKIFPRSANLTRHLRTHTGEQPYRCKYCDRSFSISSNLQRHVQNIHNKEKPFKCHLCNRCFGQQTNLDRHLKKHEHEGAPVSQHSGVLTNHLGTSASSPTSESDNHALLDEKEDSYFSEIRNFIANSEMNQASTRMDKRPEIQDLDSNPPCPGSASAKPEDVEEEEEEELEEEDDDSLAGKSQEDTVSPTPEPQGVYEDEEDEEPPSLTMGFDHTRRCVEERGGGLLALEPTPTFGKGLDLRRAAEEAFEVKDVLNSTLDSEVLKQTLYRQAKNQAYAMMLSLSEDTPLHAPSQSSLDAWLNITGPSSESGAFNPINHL

B1: PRDM16 consensus binding site EMSA probe (dsDNA)
DNA 1: GATCCGACAAGATAAGATAAGGATCTATAAGAAGATGAGGTATG
DNA 2: CATACCTCATCTTCTTATAGATCCTTATCTTATCTTGTCGGATC
B1: no binding.
